The labels stand for the following.
B1: F4 (IgG) (antibody, V domains shown)
VH: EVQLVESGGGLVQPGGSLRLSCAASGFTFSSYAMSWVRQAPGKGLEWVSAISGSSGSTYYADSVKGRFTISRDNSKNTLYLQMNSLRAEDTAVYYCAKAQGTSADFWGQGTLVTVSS
VL: DIQMTQSPSSLSASVGDRVTITCRASQSISRWLNWYQQKPGKAPKLLIYAASRLQSGVPSRFSGSGSGTDFTLTISSLQPEDFATYYCQQSYSTPWTFGQGTKVEIK
notes: Converted into the IgG form of human antibodies, expressed in ExpiCHO-S
B2: C5 (IgG) (antibody, V domains shown)
VH: EVQLVESGGGLVQPGGSLRLSCAASGFTFSSYAMSWVRQAPGKGLEWVSSISSSSGTTHYADSVKGRFTISRDNSKNTLYLQMNSLRAEDTAVYYCAKGGAFDYWGQGTLVTVSS
VL: DIQMTQSPSSLSASVGDRVTITCRASQDISRWLNWYQQKPGKAPKLLIYAASTLQSGVPSRFSGSGSGTDFTLTISSLQPEDFATYYCQQSYSFPLTFGQGTKVEIK
notes: as for B1
B3: H7 (IgG) (antibody, V domains shown)
VH: EVQLVESGGGLVQPGGSLRLSCAASGFTFSSYGMHWVRQAPGKGLEWVSGISSSGGSKYYADSVKGRFTISRDNSKNTLYLQMNSLRAEDTAVYYCAKHGHQQMDFWGQGTLVTVSS
VL: DIQMTQSPSSLSASVGDRVTITCRASQSISSWLNWYQQKPGKAPKLLIYAASRLQSGVPSRFSGSGSGTDFTLTISSLQPEDFATYYCQQTYSFPWTFGQGTKVEIK
notes: as for B1
B4: E7 (IgG) (antibody, V domains shown)
VH: EVQLVESGGGLVQPGGSLRLSCAASGFTFSSYAMHWVRQAPGKGLEWVSAISSSGGSIYYADSVKGRFTISRDNSKNTLYLQMNSLRAEDTAVYYCAKQGLSFDIWGQGTLVTVSS
VL: DIQMTQSPSSLSASVGDRVTITCRASQSISNWLNWYQQKPGKAPKLLIYATSRLQSGVPSRFSGSGSGTDFTLTISSLQPEDFATYYCQQSYSFPYTFGQGTKVEIK
notes: as for B1
B5: 1E12 (IgG) (antibody, V domains shown)
VH: EVQLVESGGGLVQPGGSLRLSCAASGFTFSSYAMHWVRQAPGKGLEWVSAISSSGGTKYYADSVKGRFTISRDNSKNTLYLQMNSLRAEDTAVYYCAKGLQGGAGAFDIWGQGTLVTVSS
VL: DIQMTQSPSSLSASVGDRVTITCRASQSISNYLNWYQQKPGKAPKLLIYATSTLHSGVPSRFSGSGSGTDFTLTISSLQPEDFATYYCQQSYSFPWTFGQGTKVEIK
notes: as for B1
B6: F2 (IgG) (antibody, V domains shown)
VH: EVQLVESGGGLAQPGGSLRLSCAASGFTFSSYAMHWVRQAPGKGLEWVSSIKSSGGSKNYADSVKGRFTISRDNSKNTLYLQMNSLRAEDTAVYYCAKGYGASFDFWGQGTLVTVSS
VL: DIQMTQSPSSLSASVGDRVTITCRASQDISSWLNWYQQKPGKAPKLLIYAASRLQSGVPSRFSGSGSGTDFTLTISSLQPEDFATYYCQQAYSFPWTFGQGTKVEIK
notes: as for B1
B7: A7 (IgG) (antibody, V domains shown)
VH: EVQLVESGGGLVQPGGSLRLSCAASGFTFSDYAMSWVRQAPGKGLEWVSGISSSGGTIYYADSVKGRFTISRDNSKNTLYLQMNSLRAEDTAVYYCAKAIGSWADIWGQGTLVTVSS
VL: DIQMTQSPSSLSASVGDRVTITCRASQDISNYLNWYQQKPGKAPKLLIYAASSLQSGVPSRFSGSGSGTDFTLTISSLQPEDFATYYCQQSYSFPYTFGQGTKVEIK
notes: as for B1
B8: A5 (IgG) (antibody, V domains shown)
VH: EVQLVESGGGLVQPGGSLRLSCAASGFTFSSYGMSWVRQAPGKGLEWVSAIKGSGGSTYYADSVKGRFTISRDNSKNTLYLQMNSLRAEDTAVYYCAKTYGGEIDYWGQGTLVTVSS
VL: DIQMTQSPSSLSASVGDRVTITCRASQSISRWLNWYQQKPGKAPKLLIYATSTLQSGVPSRFSGSGSGTDFTLTISSLQPEDFATYYCQQSYSFPWTFGQGTKVEIK
notes: as for B1
B9: H1 (IgG) (antibody, V domains shown)
VH: EVQLVESGGGLVQPGGSLRLSCAASGFTFSSYAMSWVRQAPGKGLEWVSAIRSSGGTTYYADSVKGRFTISRDNSKNTLYLQMNSLRAEDTAVYYCAKSQSTVADYWGQGTLVTVSS
VL: DIQMTQSPSSLSASVGDRVTITCRASQSISNWLNWYQQKPGKAPKLLIYATSRLQSGVPSRFSGSGSGTDFTLTISSLQPEDFATYYCQQSYSFPLTFGQGTKVEIK
notes: as for B1
B10: D2 (IgG) (antibody, V domains shown)
VH: EVQLVESGGGLVQPGGSLRLSCAASGFTFSSYAMHWVRQAPGKGLEWVSAISSSSGTIYYADSVKGRFTISRDNSKNTLYLQMNSLRAEDTAVYYCAKDFGAVFDYWGQGTLVTVSS
VL: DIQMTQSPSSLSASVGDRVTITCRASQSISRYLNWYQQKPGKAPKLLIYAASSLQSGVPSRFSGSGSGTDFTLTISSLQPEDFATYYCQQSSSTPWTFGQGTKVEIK
notes: as for B1
B11: E7 Fab clone (phage-displayed) (Fab, V domains shown)
VH: EVQLVESGGGLVQPGGSLRLSCAASGFTFSSYAMHWVRQAPGKGLEWVSAISSSGGSIYYADSVKGRFTISRDNSKNTLYLQMNSLRAEDTAVYYCAKQGLSFDIWGQGTLVTVSS
VL: DIQMTQSPSSLSASVGDRVTITCRASQSISNWLNWYQQKPGKAPKLLIYATSRLQSGVPSRFSGSGSGTDFTLTISSLQPEDFATYYCQQSYSFPYTFGQGTKVEIK
B12: H7 Fab clone (phage-displayed) (Fab, V domains shown)
VH: EVQLVESGGGLVQPGGSLRLSCAASGFTFSSYGMHWVRQAPGKGLEWVSGISSSGGSKYYADSVKGRFTISRDNSKNTLYLQMNSLRAEDTAVYYCAKHGHQQMDFWGQGTLVTVSS
VL: DIQMTQSPSSLSASVGDRVTITCRASQSISSWLNWYQQKPGKAPKLLIYAASRLQSGVPSRFSGSGSGTDFTLTISSLQPEDFATYYCQQTYSFPWTFGQGTKVEIK
B13: F2 Fab clone (phage-displayed) (Fab, V domains shown)
VH: EVQLVESGGGLAQPGGSLRLSCAASGFTFSSYAMHWVRQAPGKGLEWVSSIKSSGGSKNYADSVKGRFTISRDNSKNTLYLQMNSLRAEDTAVYYCAKGYGASFDFWGQGTLVTVSS
VL: DIQMTQSPSSLSASVGDRVTITCRASQDISSWLNWYQQKPGKAPKLLIYAASRLQSGVPSRFSGSGSGTDFTLTISSLQPEDFATYYCQQAYSFPWTFGQGTKVEIK
B14: 1E12 Fab clone (phage-displayed) (Fab, V domains shown)
VH: EVQLVESGGGLVQPGGSLRLSCAASGFTFSSYAMHWVRQAPGKGLEWVSAISSSGGTKYYADSVKGRFTISRDNSKNTLYLQMNSLRAEDTAVYYCAKGLQGGAGAFDIWGQGTLVTVSS
VL: DIQMTQSPSSLSASVGDRVTITCRASQSISNYLNWYQQKPGKAPKLLIYATSTLHSGVPSRFSGSGSGTDFTLTISSLQPEDFATYYCQQSYSFPWTFGQGTKVEIK
B15: F4 Fab clone (phage-displayed) (Fab, V domains shown)
VH: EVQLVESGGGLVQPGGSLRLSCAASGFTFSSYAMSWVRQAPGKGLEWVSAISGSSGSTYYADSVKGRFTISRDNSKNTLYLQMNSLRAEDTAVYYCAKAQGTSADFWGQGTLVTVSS
VL: DIQMTQSPSSLSASVGDRVTITCRASQSISRWLNWYQQKPGKAPKLLIYAASRLQSGVPSRFSGSGSGTDFTLTISSLQPEDFATYYCQQSYSTPWTFGQGTKVEIK
B16: A7 Fab clone (phage-displayed) (Fab, V domains shown)
VH: EVQLVESGGGLVQPGGSLRLSCAASGFTFSDYAMSWVRQAPGKGLEWVSGISSSGGTIYYADSVKGRFTISRDNSKNTLYLQMNSLRAEDTAVYYCAKAIGSWADIWGQGTLVTVSS
VL: DIQMTQSPSSLSASVGDRVTITCRASQDISNYLNWYQQKPGKAPKLLIYAASSLQSGVPSRFSGSGSGTDFTLTISSLQPEDFATYYCQQSYSFPYTFGQGTKVEIK
B17: C5 Fab clone (phage-displayed) (Fab, V domains shown)
VH: EVQLVESGGGLVQPGGSLRLSCAASGFTFSSYAMSWVRQAPGKGLEWVSSISSSSGTTHYADSVKGRFTISRDNSKNTLYLQMNSLRAEDTAVYYCAKGGAFDYWGQGTLVTVSS
VL: DIQMTQSPSSLSASVGDRVTITCRASQDISRWLNWYQQKPGKAPKLLIYAASTLQSGVPSRFSGSGSGTDFTLTISSLQPEDFATYYCQQSYSFPLTFGQGTKVEIK
B18: H1 Fab clone (phage-displayed) (Fab, V domains shown)
VH: EVQLVESGGGLVQPGGSLRLSCAASGFTFSSYAMSWVRQAPGKGLEWVSAIRSSGGTTYYADSVKGRFTISRDNSKNTLYLQMNSLRAEDTAVYYCAKSQSTVADYWGQGTLVTVSS
VL: DIQMTQSPSSLSASVGDRVTITCRASQSISNWLNWYQQKPGKAPKLLIYATSRLQSGVPSRFSGSGSGTDFTLTISSLQPEDFATYYCQQSYSFPLTFGQGTKVEIK
B19: A5 Fab clone (phage-displayed) (Fab, V domains shown)
VH: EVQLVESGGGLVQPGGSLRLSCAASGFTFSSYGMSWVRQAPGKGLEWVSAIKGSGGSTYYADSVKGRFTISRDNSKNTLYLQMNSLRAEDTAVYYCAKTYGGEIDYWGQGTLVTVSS
VL: DIQMTQSPSSLSASVGDRVTITCRASQSISRWLNWYQQKPGKAPKLLIYATSTLQSGVPSRFSGSGSGTDFTLTISSLQPEDFATYYCQQSYSFPWTFGQGTKVEIK
B20: D2 Fab clone (phage-displayed) (Fab, V domains shown)
VH: EVQLVESGGGLVQPGGSLRLSCAASGFTFSSYAMHWVRQAPGKGLEWVSAISSSSGTIYYADSVKGRFTISRDNSKNTLYLQMNSLRAEDTAVYYCAKDFGAVFDYWGQGTLVTVSS
VL: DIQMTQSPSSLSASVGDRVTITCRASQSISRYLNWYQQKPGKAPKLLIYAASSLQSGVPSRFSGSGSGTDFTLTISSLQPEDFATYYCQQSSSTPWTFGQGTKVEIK

The values that follow come from patent US20250084188A1 (CHUNGBUK NATIONAL UNIVERSITY INDUSTRY ACADEMIC COOPERATION …, published 2025).

The target in one experiment is T1, human chitinase-3-like protein 1 (hCHI3L1) (human, UniProt P36222 22-383).
T1 construct: Antigen used for phage display panning and ELISA; also called YKL-40; CHI3L1 antigen protein
T1 sequence (P36222 22-383 limits assumed): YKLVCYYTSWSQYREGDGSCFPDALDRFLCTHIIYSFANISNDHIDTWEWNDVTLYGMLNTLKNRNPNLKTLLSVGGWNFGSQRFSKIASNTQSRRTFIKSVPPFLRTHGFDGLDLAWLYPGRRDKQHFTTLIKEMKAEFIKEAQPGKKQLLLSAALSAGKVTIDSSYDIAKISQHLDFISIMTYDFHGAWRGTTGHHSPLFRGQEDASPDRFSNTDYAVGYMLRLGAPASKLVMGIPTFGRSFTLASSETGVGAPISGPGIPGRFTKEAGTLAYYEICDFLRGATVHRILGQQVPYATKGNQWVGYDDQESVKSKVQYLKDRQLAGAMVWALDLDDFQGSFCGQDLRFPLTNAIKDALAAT
Briefly: ELISA, purified IgG on CHI3L1 antigen protein.
Regarding B1, the binding result is listed as “binds”. On to B2, for which the binding result is listed as “binds”. On to B3, for which the binding result is on record as “binds”. Take B4: the binding result is recorded as “binds”.

For the molecule B5, the binding result is recorded as “binds”.

In the case of B6, the binding result is “binds”. The same measure, in the same setting: in the case of B7 it was “binds”. Turning to B8, the binding result is reported as “binds”. For the molecule B9, the binding result is reported as “binds”. Still for that read-out and setting: the entry for B10 is “binds”.

The target of a further experiment is T1, human chitinase-3-like protein 1 …. Kind of experiment: monoclonal phage ELISA, phage-displayed Fab on CHI3L1. Background: An ELISA detects its analyte on a solid surface through an enzyme-linked reagent.
Take B11: the binding result is “binds”. Take B12: the binding result is “binds”. In the case of B13, the binding result was “binds”. In the case of B14, the binding result is on record as “binds”. Consider B15, for which the binding result is listed as “binds”.

On to B16, for which the binding result is on record as “binds”.

Consider B17, for which the binding result was “binds”.

For the molecule B18, the binding result is recorded as “binds”.

With B19, the binding result is on record as “binds”. Regarding B20, the binding result is “binds”.
